From patent publication US20260274933A1 (Innovent, published 2026)
Blank lines part the entries; values can stand above or below the binder they belong to.

What was measured:
[1] = molecular target: T1, hAng2-biotin (R&D, Catalog No. BT623B/CF) (human, UniProt O15123 68-496, limits assumed, biotinylated); experiment: blocking ELISA: Tie2-Fc coated, binding of hAng2-biotin blocked
T1 construct: also called Ang2-Bio (R&D, Catalog No. BT623B/CF); Recombinant Biotinylated hAngiopoietin-2 protein (R&D)
T1 sequence (looked up): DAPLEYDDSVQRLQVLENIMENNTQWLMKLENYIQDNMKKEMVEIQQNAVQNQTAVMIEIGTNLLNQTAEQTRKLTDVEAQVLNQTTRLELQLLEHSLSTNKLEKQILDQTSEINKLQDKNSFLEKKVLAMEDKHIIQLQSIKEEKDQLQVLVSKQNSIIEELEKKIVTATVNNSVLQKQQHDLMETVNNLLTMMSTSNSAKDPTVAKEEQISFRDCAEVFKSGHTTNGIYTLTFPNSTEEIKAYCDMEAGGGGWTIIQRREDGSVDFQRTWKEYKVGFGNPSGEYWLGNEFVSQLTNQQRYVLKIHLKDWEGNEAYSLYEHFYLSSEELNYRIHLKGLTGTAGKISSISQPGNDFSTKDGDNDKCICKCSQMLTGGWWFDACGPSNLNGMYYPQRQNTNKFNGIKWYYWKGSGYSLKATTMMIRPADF
Description: The plate was washed 3 times with PBST and blocked with 3% BSA for 1.5 h. […] The plate was washed 3 times with PBST, Avidin HRP (1:2000) was added, and the plate was incubated for 35 min. The plate was washed 6 times with PBST, the color development was performed with TMB for 5 min, and OD450 nm was read after stopping.

human Ang2 [2] = molecular target: T2, human Ang2 (human, UniProt O15123 19-496, limits assumed); experiment: BLI (ForteBio), bivalent binding
T2 construct: Antigen of the ForteBio assay; also called human Ang2 (Beijing Sino Biological)
T2 sequence (looked up): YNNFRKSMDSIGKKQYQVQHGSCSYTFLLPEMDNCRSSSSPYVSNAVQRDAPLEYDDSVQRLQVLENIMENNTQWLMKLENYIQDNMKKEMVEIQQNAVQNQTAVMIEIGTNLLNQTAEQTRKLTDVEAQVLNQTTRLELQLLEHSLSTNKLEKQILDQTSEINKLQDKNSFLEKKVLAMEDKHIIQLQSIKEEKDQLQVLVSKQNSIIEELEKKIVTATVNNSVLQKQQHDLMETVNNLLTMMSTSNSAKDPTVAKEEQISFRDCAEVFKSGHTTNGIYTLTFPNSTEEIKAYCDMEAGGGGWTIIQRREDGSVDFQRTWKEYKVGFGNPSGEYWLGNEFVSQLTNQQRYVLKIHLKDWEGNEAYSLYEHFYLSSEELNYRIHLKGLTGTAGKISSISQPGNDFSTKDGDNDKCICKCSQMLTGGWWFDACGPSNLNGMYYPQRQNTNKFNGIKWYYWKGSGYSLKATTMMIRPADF

human Ang2 [3] = molecular target: T2, human Ang2; experiment: BLI (ForteBio), bivalent binding; * dissociation constant exceeding ForteBio detection limits
[4] = molecular target: T1, hAng2-biotin (R&D, Catalog No. …); experiment: blocking ELISA: hTie2 coated, binding of biotinylated hAng2 blocked; unit from the axis
Description: (§1) The antigen-antibody mixture obtained as described above was incubated in the microplate for 90 min and washed three times with PBS, and the supernatant was discarded. 100 μL of Avidin-HRP (Invitrogen) diluted in a 1:10000 ratio was added to each well, incubated at room temperature for 30 min, and washed six times with PBS. A TMB chromogenic solution (solarbio) was added to the plate at 100 μL/well for color development for 1 min, and the reaction was stopped by adding a stop solution (Solarbio) at 100 μL/well.

[5] = molecular target: T3, hAng2-Fc (Beijing Sino Biological, Catalog No. 10691-H02H) (human, UniProt O15123 19-496); experiment: flow cytometry blocking: binding of hAng2-Fc to Tie2 on 293-Tie2 cells blocked, Mean PE-A; unit from the axis
T3 construct: Bought fusion protein; also called human Ang2-hFc; recombinant hAng2-Fc protein; not shown: human Fc of the bought fusion protein
T3 sequence (looked up): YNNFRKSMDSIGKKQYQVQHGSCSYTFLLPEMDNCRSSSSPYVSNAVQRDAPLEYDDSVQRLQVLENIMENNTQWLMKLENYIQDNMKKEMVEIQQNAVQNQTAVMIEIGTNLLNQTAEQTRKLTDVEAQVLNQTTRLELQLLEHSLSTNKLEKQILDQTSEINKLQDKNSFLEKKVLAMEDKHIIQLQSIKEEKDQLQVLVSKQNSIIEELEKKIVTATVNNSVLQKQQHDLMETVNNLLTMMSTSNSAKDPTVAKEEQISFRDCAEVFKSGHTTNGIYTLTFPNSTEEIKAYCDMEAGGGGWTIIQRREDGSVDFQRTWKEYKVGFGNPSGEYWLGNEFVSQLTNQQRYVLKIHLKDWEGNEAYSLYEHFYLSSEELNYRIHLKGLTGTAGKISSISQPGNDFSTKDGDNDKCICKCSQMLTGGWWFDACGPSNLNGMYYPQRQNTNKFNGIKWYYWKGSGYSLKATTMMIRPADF
Description: (§2) The cells were centrifuged at 300 g for 5 min. The supernatant was discarded. Then the cells were resuspended in an antigen-antibody mixture. The mixture was incubated on ice for 30 min. PBS was added at 100 μL/well. After centrifugation at 300 g for 5 min, the mixture was washed once with PBS. 100 μL of goat anti-human IgG-PE (SouthernBiotech) diluted in a 1:200 ratio was added to each well. After a 20-min ice bath, PBS was added at 100 μL/well. The mixture was centrifuged at 300 g for 5 min, prior to one wash with PBS. The cells were resuspended with 100 μL of PBS. The cell fluorescence signal values were measured by a flow cytometer (BD Biosciences). According to MFI, the concentration-dependent curve was fitted with GraphPad.

[6] = molecular target: T1, hAng2-biotin (R&D, Catalog No. …); experiment: blocking ELISA: hTie2 coated, binding of biotinylated hAng2; fit value printed for the flat curve of the negative control, unit from the axis
Description: as §1

[7] = molecular target: T1, hAng2-biotin (R&D, Catalog No. …); experiment: as above; remark: listed apart in the source
Description: as §1

[8] = molecular target: T3, hAng2-Fc (Beijing Sino Biological, …); experiment: flow cytometry blocking: binding of hAng2-Fc to Tie2 on 293-Tie2 cells, Mean-PE-A; fit value printed for the flat curve of the negative control, unit from the axis
Description: as §2

[9] = molecular target: T4, biotin-labeled VEGF A165 (ACRO, Catalog No. VE5-H8210) (human, UniProt P15692-4 27-191, biotin-labeled); experiment: blocking ELISA: biotin VEGF A165 captured on streptavidin, binding of VEGFR-Fc; fit value printed for the flat curve of the negative control, unit from the axis
T4 construct: also called hVEGF A
T4 sequence (P15692 other isoform, or with tags, fused parts or gaps limits assumed): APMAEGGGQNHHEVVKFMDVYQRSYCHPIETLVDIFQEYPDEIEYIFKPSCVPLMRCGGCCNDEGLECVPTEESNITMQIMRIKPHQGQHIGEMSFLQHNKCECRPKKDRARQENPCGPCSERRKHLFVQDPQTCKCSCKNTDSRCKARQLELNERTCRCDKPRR
Description: (§3) SA (Thermo, Catalog No. 21125) was diluted to 1 μg/mL, and 100 μL/well of SA was plated in a microplate at 4° C. overnight. The plate was washed 3 times with PBST and blocked with 3% BSA for 1.5 h. […] The plate was washed 6 times with PBST, the color development was performed with TMB for 5 min, and OD450 nm was read after stopping.

[10] = molecular target: T3, hAng2-Fc (Beijing Sino Biological, …); experiment: flow cytometry blocking: binding of hAng2-Fc to Tie2 on 293-Tie2 cells, Mean PE-A; fit value printed for the flat curve of the negative control, unit from the axis
Description: as §2

[11] = molecular target: T3, hAng2-Fc (Beijing Sino Biological, …); experiment: flow cytometry blocking: binding of hAng2-Fc to Tie2 on 293-Tie2 cells blocked, Mean-PE-A; unit from the axis
Description: as §2

human VEGF165 (R&D) [12] = molecular target: T5, human VEGF165 (R&D) (human, UniProt P15692-4 27-191); experiment: BLI (ForteBio), bivalent binding
T5 construct: Antigen of the ForteBio assay
T5 sequence (P15692 other isoform, or with tags, fused parts or gaps limits assumed): as above

human VEGF165 (R&D) [13] = molecular target: T5, human VEGF165 (R&D); experiment: BLI (ForteBio), bivalent binding; * dissociation constant exceeding ForteBio detection limits
[14] = molecular target: T4, biotin-labeled VEGF A165 (ACRO, Catalog …); experiment: blocking ELISA: biotin VEGF A165 captured on streptavidin, binding of VEGFR-Fc blocked; value printed as EC50 in the table under the curves, unit from the axis
Description: as §3

human VEGF165 (R&D) [15] = molecular target: T5, human VEGF165 (R&D); experiment: BLI (ForteBio), monovalent binding

B1: LA24C11.10 (Ang2 VHH) (VHH)
VHH: EVQLLESGGGLVQPGGSLRLSCAASGFALDYYAIGWFRQAPGKGLEGVSCISSGEGSTYYADSVKGRFTISRDNSKNTVYLQMNSLRAEDTAVYYCATDSRGDDVACEGLRRNEYDYWGQGTLVTVSS
notes: Humanized anti-Ang2 VHH; also called hz24C11.10; LA24C11.0
IC50 (read off the curve) [1]: ~0.06 µg/mL | Kd (human Ang2 [2]): ≤ 828 pM | kon (human Ang2 [2]): 242000 M⁻¹ s⁻¹ | koff (human Ang2 [3]): ≤ 0.0002 s⁻¹

B2: IEX04-008 (bispecific antibody)
chain: EVQLLESGGGLVQPGGSLRLSCAASGSIFSINAMGWHRQAPGKQRELVATMIGGSSTFYAESVQGRFTISRDNSKNTVYLQMNSLRAEDTAVYYCYADVTGRSGTSIWNKRDDYWGQGTQVTVSSGGGGSGGGGSEVQLLESGGGLVQPGGSLRLSCAASGSIFSINAMGWHRQAPGKQRELVATMIGGSSTFYAESVQGRFTISRDNSKNTVYLQMNSLRAEDTAVYYCYADVTGRSGTSIWNKRDDYWGQGTQVTVSSGGGGSGGGGSEVQLLESGGGLVQPGGSLRLSCAASGFALDYYAIGWFRQAPGKGLEGVSCISSGEGSTYYADSVKGRFTISRDNSKNTVYLQMNSLRAEDTAVYYCATDSRGDDVACEGLRRNEYDYWGQGTLVTVSS
notes: also called LA46E11.8 (VHH) + linker + LA46E11.8 (VHH) + LA24C11.10
IC50 [4]: 13500 pM | IC50 [5]: 554 pM

B4: IEX04-012 (bispecific antibody)
chain: DIQLTQSPSSLSASVGDRVTITCSASQDISNYLNWYQQKPGKAPKVLIYFTSSLHSGVPSRFSGSGSGTDFTLTISSLQPEDFATYYCQQYSTVPWTFGCGTKVEIKGGGGSGGGGSGGGGSGGGGSEVQLVESGGGLVQPGGSLRLSCAASGYDFTHYGMNWVRQAPGKCLEWVGWINTYTGEPTYAADFKRRFTFSLDTSKSTAYLQMNSLRAEDTAVYYCAKYPYYYGTSHWYFDVWGQGTLVTVSSGGGGSGGGGSGGGGSEVQLLESGGGLVQPGGSLRLSCAASGFALDYYAIGWFRQAPGKGLEGVSCISSGEGSTYYADSVKGRFTISRDNSKNTVYLQMNSLRAEDTAVYYCATDSRGDDVACEGLRRNEYDYWGQGTLVTVSS
notes: also called Ranibizumab scFv containing disulfide bond mutations + linker + LA24C11.10; recombinant anti-VEGF A/anti-Ang2 bispecific antibody
IC50 [4]: 7100 pM | IC50 [11]: 686 pM

More lines, now with the values ahead:

IC50 [6]: ~6790 pM | IC50 [7]: ~596 pM | IC50 [8]: ~10100 pM | EC50 [9]: 0.00208 µg/mL | IC50 [10]: ~19 pM
B3: IgG (antibody, V domains shown)
VH: EVRLLESGGGLVQPGGSLRLSCAASGFTFSNYAMGWVRQAPGKGLEWVSAISGSGGSTYYADSVKGRFTTSRDDSKNALYLQMNSLRAEDTAVYYCARGGPGWYAADVWGQGTTVTVSS
VL: DIQMTQSPSSLSASVGDRVTITCRASQSISSYLNWYQQKPGKAPKLLIYAASSLQSGVPSRFSGSGSGTDFTLTISSLQPEDFATYYCQQADLPAFAFGGGTKVEIKR
notes: also called Negative control IgG

Kd (human VEGF165 (R&D) [12]): 843 pM | kon (human VEGF165 (R&D) [12]): 237000 M⁻¹ s⁻¹ | koff (human VEGF165 (R&D) [13]): ≤ 0.0002 s⁻¹ | EC50 [14]: 0.0149 µg/mL | Kd (human VEGF165 (R&D) [15]): 6110 pM | koff (human VEGF165 (R&D) [15]): 0.00116 s⁻¹ | kon (human VEGF165 (R&D) [15]): 189000 M⁻¹ s⁻¹
B5: LA42F8 (VEGFA VHH) (VHH)
VHH: QLQLVESGGGLVQPGGSLRLSCAASGFNLDYYPIGWFRQAPGKEREGVSCISSVGSTNYADSVKGRFTISRDNAKNTVYLQMNSLKPEDTAVYYCAADPLCSALILPPPFLSWGQGTQVTVSS
notes: Alpaca anti-VEGF A VHH; also called LA42F8 supernatant
